We go through six variants from IntAct's records for PubMed 21946559.

Sequences and labels used below:
B1: Netrin-G1 (Homo sapiens), Q9Y2I2 (parent)
chain: MYLSRFLSIHALWVTVSSVMQPYPLVWGHYDLCKTQIYTEEGKVWDYMACQPESTDMTKYLKVKLDPPDITCGDPPETFCAMGNPYMCNNECDASTPELAHPPELMFDFEGRHPSTFWQSATWKEYPKPLQVNITLSWSKTIELTDNIVITFESGRPDQMILEKSLDYGRTWQPYQYYATDCLDAFHMDPKSVKDLSQHTVLEIICTEEYSTGYTTNSKIIHFEIKDRFAFFAGPRLRNMASLYGQLDTTKKLRDFFTVTDLRIRLLRPAVGEIFVDELHLARYFYAISDIKVRGRCKCNLHATVCVYDNSKLTCECEHNTTGPDCGKCKKNYQGRPWSPGSYLPIPKGTANTCIPSISSIGNCECFGHSNRCSYIDLLNTVICVSCKHNTRGQHCELCRLGYFRNASAQLDDENVCIECYCNPLGSIHDRCNGSGFCECKTGTTGPKCDECLPGNSWHYGCQPNVCDNELLHCQNGGTCHNNVRCLCPAAYTGILCEKLRCEEAGSCGSDSGQGAPPHGSPALLLLTTLLGTASPLVF
partner: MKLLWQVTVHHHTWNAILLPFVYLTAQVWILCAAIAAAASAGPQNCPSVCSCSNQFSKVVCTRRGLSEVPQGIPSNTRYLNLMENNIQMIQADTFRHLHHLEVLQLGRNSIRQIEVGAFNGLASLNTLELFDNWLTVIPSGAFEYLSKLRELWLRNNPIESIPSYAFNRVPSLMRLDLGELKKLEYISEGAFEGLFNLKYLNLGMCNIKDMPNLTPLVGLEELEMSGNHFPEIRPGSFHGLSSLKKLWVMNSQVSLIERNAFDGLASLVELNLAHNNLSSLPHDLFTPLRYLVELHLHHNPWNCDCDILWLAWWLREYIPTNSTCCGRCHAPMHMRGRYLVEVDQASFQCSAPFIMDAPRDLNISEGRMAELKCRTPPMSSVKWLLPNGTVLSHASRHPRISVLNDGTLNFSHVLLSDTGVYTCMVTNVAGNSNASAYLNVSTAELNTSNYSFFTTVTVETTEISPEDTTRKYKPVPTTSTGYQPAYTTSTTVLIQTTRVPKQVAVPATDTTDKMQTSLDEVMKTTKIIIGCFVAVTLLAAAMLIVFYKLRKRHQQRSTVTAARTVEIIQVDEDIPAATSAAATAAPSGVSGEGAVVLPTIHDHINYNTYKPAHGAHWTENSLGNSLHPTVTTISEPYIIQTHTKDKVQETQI
B2: Leucine-rich repeat-containing protein 4 (Homo sapiens), Q9HBW1 (parent)
chain: B1 partner
partner: B1 chain
B3: Leucine-rich repeat-containing protein 4C (Homo sapiens), Q9HCJ2 (parent)
chain: MLNKMTLHPQQIMIGPRFNRALFDPLLVVLLALQLLVVAGLVRAQTCPSVCSCSNQFSKVICVRKNLREVPDGISTNTRLLNLHENQIQIIKVNSFKHLRHLEILQLSRNHIRTIEIGAFNGLANLNTLELFDNRLTTIPNGAFVYLSKLKELWLRNNPIESIPSYAFNRIPSLRRLDLGELKRLSYISEGAFEGLSNLRYLNLAMCNLREIPNLTPLIKLDELDLSGNHLSAIRPGSFQGLMHLQKLWMIQSQIQVIERNAFDNLQSLVEINLAHNNLTLLPHDLFTPLHHLERIHLHHNPWNCNCDILWLSWWIKDMAPSNTACCARCNTPPNLKGRYIGELDQNYFTCYAPVIVEPPADLNVTEGMAAELKCRASTSLTSVSWITPNGTVMTHGAYKVRIAVLSDGTLNFTNVTVQDTGMYTCMVSNSVGNTTASATLNVTAATTTPFSYFSTVTVETMEPSQDEARTTDNNVGPTPVVDWETTNVTTSLTPQSTRSTEKTFTIPVTDINSGIPGIDEVMKTTKIIIGCFVAITLMAAVMLVIFYKMRKQHHRQNHHAPTRTVEIINVDDEITGDTPMESHLPMPAIEHEHLNHYNSYKSPFNHTTTVNTINSIHSSVHEPLLIRMNSKDNVQETQI
partner: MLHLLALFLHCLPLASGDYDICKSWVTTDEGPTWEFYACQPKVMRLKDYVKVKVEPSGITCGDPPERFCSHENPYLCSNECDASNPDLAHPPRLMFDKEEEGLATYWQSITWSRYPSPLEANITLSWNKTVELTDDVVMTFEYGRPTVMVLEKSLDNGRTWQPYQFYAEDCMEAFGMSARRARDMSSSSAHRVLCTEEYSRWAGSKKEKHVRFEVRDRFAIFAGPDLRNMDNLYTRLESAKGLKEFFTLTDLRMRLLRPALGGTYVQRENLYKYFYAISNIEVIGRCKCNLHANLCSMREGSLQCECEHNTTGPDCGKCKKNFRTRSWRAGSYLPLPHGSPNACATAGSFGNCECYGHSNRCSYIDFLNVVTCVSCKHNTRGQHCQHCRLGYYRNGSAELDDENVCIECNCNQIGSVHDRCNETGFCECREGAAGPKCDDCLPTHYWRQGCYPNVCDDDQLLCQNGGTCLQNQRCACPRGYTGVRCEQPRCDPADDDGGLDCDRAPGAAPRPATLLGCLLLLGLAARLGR
B4: Leucine-rich repeat-containing protein 4 (Homo sapiens), Q9HBW1 (parent)
chain: B1 partner
partner: B3 partner
B5: Netrin-G2 (Homo sapiens), Q96CW9 (parent)
chain: B3 partner
partner: B3 chain

Variants of B1 are the subject of the first assay. Conditions: with lrrc4_human LRRC4, Q9HBW1.
MYLSRFLSIHALWVTVSSVMQPYPLVWGHYDLCKTQIYTEEGKVWDYMACQPESTDMTKYLKVKLDPPDITCGDPPETFCAMGNPTMCNNECDASTPELAHPPELMFDFEGRHPSTFWQSATWKEYPKPLQVNITLSWSKTIELTDNIVITFESGRPDQMILEKSLDYGRTWQPYQYYATDCLDAFHMDPKSVKDLSQHTVLEIICTEEYSTGYTTNSKIIHFEIKDRFAFFAGPRLRNMASLYGQLDTTKKLRDFFTVTDLRIRLLRPAVGEIFVDELHLARYFYAISDIKVRGRCKCNLHATVCVYDNSKLTCECEHNTTGPDCGKCKKNYQGRPWSPGSYLPIPKGTANTCIPSISSIGNCECFGHSNRCSYIDLLNTVICVSCKHNTRGQHCELCRLGYFRNASAQLDDENVCIECYCNPLGSIHDRCNGSGFCECKTGTTGPKCDECLPGNSWHYGCQPNVCDNELLHCQNGGTCHNNVRCLCPAAYTGILCEKLRCEEAGSCGSDSGQGAPPHGSPALLLLTTLLGTASPLVF [Y86T]: the “effect of a mutation on the interaction” value is given as “disrupting interaction”. On the same count and under the same terms, the same measure for MYLSRFLSIHALWVTVSSVMQPYPLVWGHYDLCKTQIYTEEGKVWDYMACQPESTDMTKYLKVKLDPPDITCGDPPETFCAMGNAYMCNNECDASTPELAHPPELMFDFEGRHPSTFWQSATWKEYPKPLQVNITLSWSKTIELTDNIVITFESGRPDQMILEKSLDYGRTWQPYQYYATDCLDAFHMDPKSVKDLSQHTVLEIICTEEYSTGYTTNSKIIHFEIKDRFAFFAGPRLRNMASLYGQLDTTKKLRDFFTVTDLRIRLLRPAVGEIFVDELHLARYFYAISDIKVRGRCKCNLHATVCVYDNSKLTCECEHNTTGPDCGKCKKNYQGRPWSPGSYLPIPKGTANTCIPSISSIGNCECFGHSNRCSYIDLLNTVICVSCKHNTRGQHCELCRLGYFRNASAQLDDENVCIECYCNPLGSIHDRCNGSGFCECKTGTTGPKCDECLPGNSWHYGCQPNVCDNELLHCQNGGTCHNNVRCLCPAAYTGILCEKLRCEEAGSCGSDSGQGAPPHGSPALLLLTTLLGTASPLVF [P85A]: “disrupting interaction”.

A further assay covers variants of B2. Conditions: with ntng1_human NTNG1, Q9Y2I2.
With G204T, the “effect of a mutation on the interaction” value is reported as “disrupting interaction”.

The next assay covers variants of B3. Conditions: with ntng2_human NTNG2, Q96CW9.
For A205T, the “effect of a mutation on the interaction” value is recorded as “disrupting interaction”.

In a further assay the parent is B4. Conditions: with ntng2_human NTNG2, Q96CW9.
Regarding G204T, the “effect of a mutation on the interaction” value is recorded as “disrupting interaction”.

The next assay covers variants of B5. The settings on record: with lrc4c_human LRRC4C, Q9HCJ2.
For MLHLLALFLHCLPLASGDYDICKSWVTTDEGPTWEFYACQPKVMRLKDYVKVKVEPSGITCGDPPERFCSHENPTLCSNECDASNPDLAHPPRLMFDKEEEGLATYWQSITWSRYPSPLEANITLSWNKTVELTDDVVMTFEYGRPTVMVLEKSLDNGRTWQPYQFYAEDCMEAFGMSARRARDMSSSSAHRVLCTEEYSRWAGSKKEKHVRFEVRDRFAIFAGPDLRNMDNLYTRLESAKGLKEFFTLTDLRMRLLRPALGGTYVQRENLYKYFYAISNIEVIGRCKCNLHANLCSMREGSLQCECEHNTTGPDCGKCKKNFRTRSWRAGSYLPLPHGSPNACATAGSFGNCECYGHSNRCSYIDFLNVVTCVSCKHNTRGQHCQHCRLGYYRNGSAELDDENVCIECNCNQIGSVHDRCNETGFCECREGAAGPKCDDCLPTHYWRQGCYPNVCDDDQLLCQNGGTCLQNQRCACPRGYTGVRCEQPRCDPADDDGGLDCDRAPGAAPRPATLLGCLLLLGLAARLGR [Y75T], the “effect of a mutation on the interaction” value is reported as “disrupting interaction”.
